# B1: Cys62Ala, Gln115Ser, Gln116His, Lys125Ala, Ala127Thr, Arg128Ala, Cys150Asn, Ser151Ile, Ser152Asn, Asn157Gly, Ser159Glu, truncated after Gly182: particularly preferred hAGT mutant with the listed … (protein, UniProt P16455 1-207, looked up, variant C62A Q115S Q116H K125A A127T R128A C150N S151I S152N N157G S159E del183-207)
# Methylated-DNA--protein-cystei …: MDKDCEMKRTTLDSPLGKLELSGCEQGLHEIKLLGKGTSAADAVEVPAPAAVLGGPEPLMQATAWLNAYFHQPEAIEEFPVPALHHPVFQQESFTRQVLWKLLKVVKFGEVISYSHLAALAGNPAATAAVGGAMRGNPVPILIPCHRVVNINGAVGGYEGGLAVKEWLLAHEGHRLGKPGLG
# Key:
# [1] = Activity assay with biotinylated O^6-benzylguanine (BG-Bt), Western blotting; format: biochemical; conditions: statement in words
# Description: Activity towards O^6-benzylguanine substrates is measured as described by Juillerat et al., Chem Biol 10:313-317, 2003.
# Activity assay: Purified mutated GST-AGT is incubated in vitro with a biotinylated O^6-benzylguanine (BG-Bt, substance 3a of Juillerat et al., Chem Biol 10:313-317, 2003). In a total reaction volume of 80 […]I, 0.2 µM GST-AGT are incubated with 1 µM substrate in 50 mM HEPES pH 7.2 and 1 mM DTT at room temperature. At several points of time an aliquot is quenched with 1 mM O^6-benzylguanine (Sigma) in SDS-Laemmli buffer and subjected to Western blotting analysis (neutravidin-peroxidase conjugate (PIERCE), Renaissance reagent plus (NEN)). The intensity of the corresponding bands is quantified by a Kodak Image Station 440.
# [2] = Periplasmic expression / stability under oxidizing conditions; parameters: species or system E. coli
# Description: The activities towards AGT substrates are measured after purification without addition of reducing agents such as dithiothreitol or beta-mercaptoethanol. Alternatively, the activities of mutant AGT and wild type human are compared after their export into cellular compartments with oxidising redox potential (e.g. the periplasm of E. coli due to their fusion to appropriate signal sequences. Activity towards AGT substrates under reducing and oxidising conditions is compared by performing the reactions in the presence or absence of reducing agents such as dithiothreitol or beta-mercaptoethanol.
# The mutant AGT gene of Example 1 is amplified and cloned as described in Example 1 with the oligonucleotides SEQ ID NO:3, SEQ ID NO:10 and SEQ ID NO:4, SEQ ID NO:9 causing the further mutation Cys62Ala in the gene upon their incorporation by PCR. Protein expression, purification and determination of yield is carried out as described in Example 1. The mutant gene is PCR amplified with the primers SEQ ID NO:11, SEQ ID NO:12 that contain SfiI restriction sites to subclone the gene in fusion to the g3 protein of filamentous phage in the vector pAK100 (Krebber et al., J Immunol Methods 201:35-55, 1997). […] The supernatant is directly subjected to quantification of protein yield via SDS-PAGE and activity assays as described in Example 1.
# Stability under oxidizing conditions: The mutant gene is PCR amplified with the primers SEQ ID NO:11 and SEQ ID NO:28 to subclone the gene into pAK100, as described in Example 2. […] To compare the reactivity of […] (Juillerat et al., Chem Biol 10:313-317, 2003) and the mutant, samples are incubated with 1 µM BG-Bt for 50 min, quenched with SDS-Laemmli buffer and analyzed by western blotting using neutravidin peroxidase conjugate (Pierce) or a monoclonal mouse anti-FLAG IgG antibody (M2, Sigma) and a secondary anti-mouse-IgG::HRP conjugate, and Renaissance reagent plus (NEN). […] The anti-FLAG IgG antibody is used to estimate the total amount of soluble AGT protein, whereas neutravidin quantifies the reactive portion of it. […]
# [3] = Expression yield of soluble GST-AGT fusion protein; parameters: species or system E. coli; conditions: comparator not stated
# Description: Expression yield is measured in E. coli or in any other of the standard production cells for genetically modified proteins, e.g. yeast, or preferably insect cells, CHO cells or HeLa cells. For quantifying expression yield, AGT fusion proteins may be chosen such that the fusion partner allows easy purification and quantification. For example, expression yield in E. coli is determined by measuring and comparing the yield of soluble and insoluble GST-wild type AGT fusion protein and GST-mutant AGT fusion protein from parallel E. coli expression cultures. Samples of the soluble fractions and insoluble fractions (i.e. the inclusion bodies) after cell lysis are subjected to SDS-PAGE, and the band staining intensities of the corresponding AGT fusion proteins are compared. Soluble protein is quantified after purification of the fusion protein from cell extracts by affinity chromatography (e.g. for GST-AGT fusion proteins by glutathione sepharose) by subjecting the purified fractions to a protein concentration assay (Bradford, Anal Biochem 72:248-54, 1976). The expression yield of similar proteins in the soluble fraction (difference in point mutations) can be used as a measure for protein stability in the unpurified as well as the purified state (Ohage et al., J Mol Biol 291:1119-1128, 1999; Wirtz et al., Protein Sci 8: 2245-50, 1999). Therefore, this is taken as a measure of folding stability and aggregation tendency.
# Protein expression from this vector is carried out in E. coli strain BL21. An exponentially growing culture is induced with 0.5 mM IPTG, and the expression is carried out for 3.5 h at 24° C.
# Purification: The harvested cells are resuspended in a buffer containing 50 mM phosphate, 0.5 M NaCl, 1 mM DTT, supplemented with 1 mM PMSF and 2 μg/ml aprotinin, and disrupted by lysozyme and sonification. The cell debris are separated by centrifugation at 40000×g. The extract is applied to pre-equilibrated glutathione sepharose (Amersham) which is then washed with 20 bed volumes (50 mM phosphate, 0.5 M NaCl, 1 mM DTT). The mutated GST-AGT fusion protein is eluted with 10 mM reduced glutathione in 50 mM Tris·HCl pH 7.9. The purified protein is dialyzed against 50 mM HEPES pH 7.2; 1 mM DTT; 30% glycerol and then stored at −80° C.
# Determination of protein yield: Purity and relative amounts of the GST-AGT fusion proteins are compared by running samples on SDS-PAGE. UV spectra of the pure fractions are recorded using a Perkin Elmer Lambda 10. For protein samples containing no significant amount of DNA, the extinction at 280 nm as a measure of protein content is compared to that of wild type hAGT or PGEG-hAGT that were purified under the same conditions.
# [4] = Competition of N^9-substituted and N^9-unsubstituted O^6-benzylguanine substrates; format: biochemical; conditions: comparator not stated
# Description: Such N^9-substituted O^6-alkylguanine substrates are the natural substrates of the wild type AGT. The ability of wild type AGT or mutant AGT to react with N^9-modified O^6-alkylguanine substrates is measured as the rate of its reaction with such substrates, e.g. with the low molecular weight N^9-cyclopentyl-O^6-benzylguanine in presence of biotinylated N^9-unsubstituted O^6-alkylguanine substrates in competition experiments. Subsequently, samples are subjected to Western blotting and detection with streptavidin derivates to obtain kinetic constants for these substrates. Alternatively, the reactivity towards such substrates is measured as the inhibition of the reaction of AGT with BG-Cy3. The reaction of AGT with BG-Cy3 is followed by an increase of Cy3 fluorescence intensity upon binding to AGT, after preincubation or in direct competition with the N^9-modified O^6-alkylguanine substrate.
# Selected AGT mutants are subcloned into pGEX2T, expressed, purified and characterized as described in Example 1. Discrimination between N^9 substituted and N^9 unsubstituted O^6-benzylguanine substrates is evaluated by competition experiments for purified mutated GST-AGT in vitro with N^9-substituted and N′-unsubstituted O^6-benzylguanine. Aliquots of 0.2 μM GST-AGT are incubated with varying concentrations of N^9 substituted substrate (0, 0.5, up to 100 µM) and 0.5 µM biotinylated O^6-benzylguanine (BG-Bt, substance 3a of Juillerat et al., Chem Biol 10:313-317, 2003) in 50 mM HEPES pH 7.3 and 1 mM DTT at room temperature. After 45 min reactions are quenched by the addition of SDS-Laemmli buffer and heat denaturation. Samples are subjected to SDS-PAGE and Western blotting analysis (neutravidin-peroxidase conjugate (PIERCE), Renaissance reagent plus (NEN)). The intensity of the corresponding bands is quantified by a Kodak Image Station 440.
molecule,measurement,setting,value
B1,activity towards O^6-benzylguanine substrates,[1],increased reactivity
same,sensitivity to oxidation,[2],reduced sensitivity to oxidation
same,expression yield in E. coli,[3],increased expression yield
same,reduced reactivity towards O^6-alkyl-N^9-deoxyribosylguanine or N^9-cyclopentyl-O^6-benzylguanine,[4],retain reactivity

# — patent US7888090B2, “Mutants of O6-alkylguanine-DNA alkyltransferase” (Ecole Polytechnique Federale de Lausanne, priority 2004, dated 2011)
